A short description of this data set: melting temperature; melt of duplexes. The following applies: sodium 0.0675 M; strand 1 µM.
Consider “CGACGTGCAGGATGTGCTG+CAGCACATCCAGCACGTCG ((((((((.((((((((((+)))))))))).))))))))”, for which the Tm (commonly the temperature at which the thermal transition is half complete) was 59.8 °C.
Under “CGACGTGCGCCATGTGCTG+CAGCACATGTAGCACGTCG ((((((((..(((((((((+)))))))))..))))))))” stands 55.1 °C; under “CGACGTGCCTGATGTGCTG+CAGCACATTTAGCACGTCG ((((((((...((((((((+))))))))...))))))))”, 49.6 °C.
Take “CGACGTGCAGAATGTGCTG+CAGCACATGCAGCACGTCG ((((((((.(.((((((((+)))))))).).))))))))”: the Tm was determined as 54.6 °C.
Regarding “CGACGTGCGTTATGTGCTG+CAGCACATTCAGCACGTCG ((((((((...((((((((+))))))))...))))))))”, the midpoint of thermal melting (Tm) was 52.1 °C.
Under “CGACGTGCCGGATGTGCTG+CAGCACATATAGCACGTCG ((((((((...((((((((+))))))))...))))))))” stands 49.9 °C.
In the case of “CGACGTGCTCGATGTGCTG+CAGCACATCGCGCACGTCG ((((((((.((((((((((+)))))))))).))))))))” it was 59.6 °C.
Under “CGACGTGCGTGATGTGCTG+CAGCACATTGCGCACGTCG (((((((((..((((((((+))))))))..)))))))))” stands 58 °C.
Turning to “CGACGTGCGAAATGTGCTG+CAGCACATCGGGCACGTCG ((((((((...((((((((+))))))))...))))))))”, the Tm was found to be 48.6 °C.
As to “CGACGTGCATTATGTGCTG+CAGCACATAACGCACGTCG ((((((((.((((((((((+)))))))))).))))))))”, the Tm was found to be 53.8 °C.
In the case of “CGACGTGCGGTATGTGCTG+CAGCACATATTGCACGTCG ((((((((..(((((((((+)))))))))..))))))))” it was 55 °C; in that of “CGACGTGCGGAATGTGCTG+CAGCACATAACGCACGTCG (((((((((..((((((((+))))))))..)))))))))”, 58.6 °C.
Take “CGACGTGCGGGATGTGCTG+CAGCACATAAAGCACGTCG ((((((((...((((((((+))))))))...))))))))”: the melting temperature (Tm) turned out to be 53.6 °C.
With “CGACGTGCCATATGTGCTG+CAGCACATTTAGCACGTCG ((((((((.(.((((((((+)))))))).).))))))))”, the midpoint of thermal melting (Tm) stood at 49.7 °C.
Take “CGACGTGCTTTATGTGCTG+CAGCACATCCCGCACGTCG ((((((((...((((((((+))))))))...))))))))”: the Tm was found to be 46.8 °C.
Under “CGACGTGCCGTATGTGCTG+CAGCACATGTTGCACGTCG ((((((((...((((((((+))))))))...))))))))” stands 48.3 °C; under “CGACGTGCTACATGTGCTG+CAGCACATTGTGCACGTCG ((((((((...((((((((+))))))))...))))))))”, 48.7 °C; under “CGACGTGCGTAATGTGCTG+CAGCACATTCCGCACGTCG (((((((((.(((((((((+))))))))).)))))))))”, 57.7 °C.
Take “CGACGTGCTTGATGTGCTG+CAGCACATGTAGCACGTCG (((((((((..((((((((+))))))))..)))))))))”: the Tm was found to be 51.7 °C.
In the case of “CGACGTGCACAATGTGCTG+CAGCACATTATGCACGTCG (((((((((.(((((((((+))))))))).)))))))))” it was 52.8 °C; in that of “CGACGTGCCAGATGTGCTG+CAGCACATATGGCACGTCG ((((((((((.((((((((+)))))))).))))))))))”, 59.9 °C.
In the case of “CGACGTGCTGTATGTGCTG+CAGCACATATGGCACGTCG ((((((((..(((((((((+)))))))))..))))))))” it was 54.4 °C; in that of “CGACGTGCTCGATGTGCTG+CAGCACATATGGCACGTCG ((((((((...((((((((+))))))))...))))))))”, 50.5 °C; in that of “CGACGTGCCACATGTGCTG+CAGCACATTGGGCACGTCG (((((((((..((((((((+))))))))..)))))))))”, 55 °C.
In the case of “CGACGTGCTTTATGTGCTG+CAGCACATGGAGCACGTCG (((((((((..((((((((+))))))))..)))))))))” it was 54.2 °C; in that of “CGACGTGCCGGATGTGCTG+CAGCACATTTAGCACGTCG ((((((((...((((((((+))))))))...))))))))”, 49.4 °C; in that of “CGACGTGCTCGATGTGCTG+CAGCACATCATGCACGTCG ((((((((..(((((((((+)))))))))..))))))))”, 54.1 °C.
As to “CGACGTGCTGGATGTGCTG+CAGCACATTCTGCACGTCG ((((((((.(.((((((((+)))))))).).))))))))”, the Tm is 55.6 °C.
Consider “CGACGTGCCATATGTGCTG+CAGCACATTCTGCACGTCG ((((((((...((((((((+))))))))...))))))))”, for which the Tm stood at 48.8 °C.
Take “CGACGTGCGTTATGTGCTG+CAGCACATTGTGCACGTCG ((((((((...((((((((+))))))))...))))))))”: the Tm stood at 47.2 °C.
Under “CGACGTGCTAGATGTGCTG+CAGCACATCCTGCACGTCG ((((((((..(((((((((+)))))))))..))))))))” stands 54.7 °C; under “CGACGTGCTCGATGTGCTG+CAGCACATCAGGCACGTCG ((((((((..(((((((((+)))))))))..))))))))”, 55.4 °C.
With “CGACGTGCTCTATGTGCTG+CAGCACATAGAGCACGTCG (((((((((((((((((((+)))))))))))))))))))”, the melting temperature (Tm) is 63 °C.
Consider “CGACGTGCTTAATGTGCTG+CAGCACATAGAGCACGTCG (((((((((..((((((((+))))))))..)))))))))”, for which the Tm was 53.1 °C.
In the case of “CGACGTGCGCAATGTGCTG+CAGCACATGATGCACGTCG ((((((((...((((((((+))))))))...))))))))” it was 52.5 °C.
Under “CGACGTGCGATATGTGCTG+CAGCACATTGTGCACGTCG ((((((((...((((((((+))))))))...))))))))” stands 47.6 °C; under “CGACGTGCGACATGTGCTG+CAGCACATCTGGCACGTCG ((((((((.(.((((((((+)))))))).).))))))))”, 49 °C.
In the case of “CGACGTGCGGAATGTGCTG+CAGCACATAGCGCACGTCG (((((((((..((((((((+))))))))..)))))))))” it was 55.5 °C; in that of “CGACGTGCTATATGTGCTG+CAGCACATGGCGCACGTCG ((((((((...((((((((+))))))))...))))))))”, 48.5 °C; in that of “CGACGTGCCGAATGTGCTG+CAGCACATAAGGCACGTCG (((((((((..((((((((+))))))))..)))))))))”, 58 °C.
As to “CGACGTGCAAAATGTGCTG+CAGCACATCCCGCACGTCG ((((((((...((((((((+))))))))...))))))))”, the Tm is 47.2 °C.
As for “CGACGTGCGTGATGTGCTG+CAGCACATCGTGCACGTCG ((((((((..(((((((((+)))))))))..))))))))”, the Tm is 54.5 °C.
Under “CGACGTGCCATATGTGCTG+CAGCACATGTGGCACGTCG ((((((((((.((((((((+)))))))).))))))))))” stands 60.3 °C.
In the case of “CGACGTGCTAGATGTGCTG+CAGCACATTACGCACGTCG ((((((((...((((((((+))))))))...))))))))” it was 50.1 °C.
Under “CGACGTGCCCAATGTGCTG+CAGCACATTGGGCACGTCG (((((((((((((((((((+)))))))))))))))))))” stands 66 °C; under “CGACGTGCTGTATGTGCTG+CAGCACATTCCGCACGTCG ((((((((.(.((((((((+)))))))).).))))))))”, 50.1 °C; under “CGACGTGCGTAATGTGCTG+CAGCACATTACGCACGTCG (((((((((((((((((((+)))))))))))))))))))”, 63.9 °C.
As for “CGACGTGCATCATGTGCTG+CAGCACATCGAGCACGTCG ((((((((...((((((((+))))))))...))))))))”, the Tm stood at 48.9 °C.
In the case of “CGACGTGCGACATGTGCTG+CAGCACATTCAGCACGTCG ((((((((...((((((((+))))))))...))))))))” it was 52.4 °C; in that of “CGACGTGCCGCATGTGCTG+CAGCACATCGTGCACGTCG ((((((((...((((((((+))))))))...))))))))”, 50.5 °C.
As for “CGACGTGCCCGATGTGCTG+CAGCACATTATGCACGTCG ((((((((...((((((((+))))))))...))))))))”, the Tm is 48.4 °C.
Under “CGACGTGCAGTATGTGCTG+CAGCACATAGCGCACGTCG ((((((((..(((((((((+)))))))))..))))))))” stands 51.7 °C; under “CGACGTGCAACATGTGCTG+CAGCACATGGGGCACGTCG ((((((((..(((((((((+)))))))))..))))))))”, 58.9 °C.
In the case of “CGACGTGCCTTATGTGCTG+CAGCACATTGTGCACGTCG ((((((((...((((((((+))))))))...))))))))” it was 45.7 °C; in that of “CGACGTGCGCTATGTGCTG+CAGCACATGCTGCACGTCG ((((((((...((((((((+))))))))...))))))))”, 51.5 °C; in that of “CGACGTGCGGGATGTGCTG+CAGCACATTACGCACGTCG (((((((((..((((((((+))))))))..)))))))))”, 58 °C.
On to “CGACGTGCTTAATGTGCTG+CAGCACATTACGCACGTCG ((((((((.((((((((((+)))))))))).))))))))”, for which the Tm came out at 54.8 °C.
In the case of “CGACGTGCCCCATGTGCTG+CAGCACATAACGCACGTCG ((((((((...((((((((+))))))))...))))))))” it was 45.7 °C; in that of “CGACGTGCTCTATGTGCTG+CAGCACATGGAGCACGTCG ((((((((((.((((((((+)))))))).))))))))))”, 59.7 °C; in that of “CGACGTGCAAAATGTGCTG+CAGCACATCCGGCACGTCG ((((((((...((((((((+))))))))...))))))))”, 49.1 °C.
Consider “CGACGTGCTGGATGTGCTG+CAGCACATATTGCACGTCG ((((((((...((((((((+))))))))...))))))))”, for which the Tm came to 50.9 °C.
Under “CGACGTGCCACATGTGCTG+CAGCACATACGGCACGTCG (((((((((..((((((((+))))))))..)))))))))” stands 53.4 °C.
In the case of “CGACGTGCGGAATGTGCTG+CAGCACATTCGGCACGTCG ((((((((.((((((((((+)))))))))).))))))))” it was 59.9 °C.
Under “CGACGTGCGATATGTGCTG+CAGCACATCCTGCACGTCG ((((((((...((((((((+))))))))...))))))))” stands 49.5 °C.
For the substance “CGACGTGCCGCATGTGCTG+CAGCACATTGAGCACGTCG ((((((((...((((((((+))))))))...))))))))”, the Tm worked out at 49.5 °C.
Consider “CGACGTGCCGTATGTGCTG+CAGCACATTAAGCACGTCG ((((((((...((((((((+))))))))...))))))))”, for which the Tm was 49.1 °C.

Source of the values: the array DNA melting data of Ke et al..
